# Measurements as given in article PMC5632315 (Biochemistry, 2016).
# No end group written: not given here.
# Target: human calmodulin (CaM) construct possessing an N-terminal His6 tag (human, UniProt P0DP23 1-149)
# Test: single-molecule TIRF microscopy
binder,measurement,value
C(Alexa Fluor 555 maleimide)KKKKKRFSFKKSFKLSGFSFKKNKK [Human MARCKS PIP2 binding domain peptide (MARCKS residues 151-175) with an added N-terminal cysteine],binding result,binds
